In US20050042227A1 (published 2005):
Blank lines part the entries; values can stand above or below the binder they belong to.

Columns and labels:
[1] = biological target: T1, recombinant human alpha-L-iduronidase (Aldurazyme) (human, UniProt P35475 27-653, limits assumed); experiment: ligand blot, sLRP2 spotted on membrane, detection with antibodies
T1 construct: also called rhIDU; Recombinant human IDU
T1 sequence (looked up): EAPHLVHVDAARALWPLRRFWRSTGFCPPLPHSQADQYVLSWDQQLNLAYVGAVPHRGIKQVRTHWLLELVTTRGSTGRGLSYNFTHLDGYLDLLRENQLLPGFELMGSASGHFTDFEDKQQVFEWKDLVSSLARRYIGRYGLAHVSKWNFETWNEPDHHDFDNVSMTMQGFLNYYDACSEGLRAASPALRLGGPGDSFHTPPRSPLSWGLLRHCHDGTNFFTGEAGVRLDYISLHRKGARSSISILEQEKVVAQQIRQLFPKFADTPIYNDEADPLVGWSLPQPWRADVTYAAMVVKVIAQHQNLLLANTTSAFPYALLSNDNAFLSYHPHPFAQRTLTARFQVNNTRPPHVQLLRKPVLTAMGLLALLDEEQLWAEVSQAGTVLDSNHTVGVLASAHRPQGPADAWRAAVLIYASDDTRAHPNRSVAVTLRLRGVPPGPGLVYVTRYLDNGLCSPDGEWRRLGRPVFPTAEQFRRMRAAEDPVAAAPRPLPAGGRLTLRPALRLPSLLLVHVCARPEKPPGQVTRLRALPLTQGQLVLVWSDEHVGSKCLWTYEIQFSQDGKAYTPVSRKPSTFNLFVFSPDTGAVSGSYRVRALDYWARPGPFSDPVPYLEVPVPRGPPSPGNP
Procedure: Membranes were then mounted in a Bio-Rad dot blot apparatus. The second ligand-binding domain of LRP1 (sLRP2, 1 μg/well) was applied to the membrane by vacuum filtration. The membrane was then cut into sections that were placed in separate wells of a 24-well plate. Membranes were blocked in TBS (20 mM Tris pH 7.4, 150 mM Sodium Chloride) with 5 mM Calcium Chloride and 3% non-fat dry milk for 30 minutes. Ligands were incubated with each membrane spot for 2 hours at room temperature. Individual blots were washed 2×5 minutes each with blocking buffer and then incubated with different antibodies in block buffer for one hour at room temperature to detect binding.

[2] = biological target: mLRP/LRPTmMegT mini-receptor (MEGt) (UniProt Q07954 3293-4444); experiment: cell-based or functional assay
Sequence of mLRP/LRPTmMegT mini-receptor (MEGt) (Q07954 3293-4444): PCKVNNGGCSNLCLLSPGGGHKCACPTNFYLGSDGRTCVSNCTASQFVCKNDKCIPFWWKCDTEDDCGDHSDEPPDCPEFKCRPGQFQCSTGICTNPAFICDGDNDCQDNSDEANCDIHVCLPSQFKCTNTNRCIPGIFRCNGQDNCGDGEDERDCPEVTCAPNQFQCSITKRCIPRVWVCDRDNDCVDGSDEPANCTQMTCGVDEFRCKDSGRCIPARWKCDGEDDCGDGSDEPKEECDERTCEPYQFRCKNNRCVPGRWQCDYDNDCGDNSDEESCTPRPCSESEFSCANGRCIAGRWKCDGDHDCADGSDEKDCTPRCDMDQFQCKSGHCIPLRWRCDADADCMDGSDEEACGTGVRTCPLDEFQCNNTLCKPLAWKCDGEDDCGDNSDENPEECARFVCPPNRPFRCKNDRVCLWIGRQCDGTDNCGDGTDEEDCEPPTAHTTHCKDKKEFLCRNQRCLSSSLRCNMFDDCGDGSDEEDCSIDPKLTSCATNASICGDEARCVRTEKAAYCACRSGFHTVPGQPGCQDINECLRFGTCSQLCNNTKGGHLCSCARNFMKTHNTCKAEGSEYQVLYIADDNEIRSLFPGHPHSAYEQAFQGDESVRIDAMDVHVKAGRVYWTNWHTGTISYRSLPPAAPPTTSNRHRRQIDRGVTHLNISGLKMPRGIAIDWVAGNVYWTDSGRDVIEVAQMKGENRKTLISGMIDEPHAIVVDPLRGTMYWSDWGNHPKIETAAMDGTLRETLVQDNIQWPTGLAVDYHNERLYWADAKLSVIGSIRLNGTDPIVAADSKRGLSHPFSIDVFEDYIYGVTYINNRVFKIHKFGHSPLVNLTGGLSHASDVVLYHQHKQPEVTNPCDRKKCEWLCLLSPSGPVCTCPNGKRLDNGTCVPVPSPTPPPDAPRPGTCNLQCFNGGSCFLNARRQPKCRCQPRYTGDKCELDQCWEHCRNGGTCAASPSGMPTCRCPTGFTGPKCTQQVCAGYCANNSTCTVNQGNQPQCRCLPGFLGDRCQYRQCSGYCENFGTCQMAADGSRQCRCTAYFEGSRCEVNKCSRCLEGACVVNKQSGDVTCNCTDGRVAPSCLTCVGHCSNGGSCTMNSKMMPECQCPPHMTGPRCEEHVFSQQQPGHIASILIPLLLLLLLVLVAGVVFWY

binding result [1]: no binding
B1: sLRP2, the entire second ligand-binding domain of human LRP1 (receptor, UniProt Q07954 806-1183, looked up)
chain: KCRVNNGGCSSLCLATPGSRQCACAEDQVLDADGVTCLANPSYVPPPQCQPGEFACANSRCIQERWKCDGDNDCLDNSDEAPALCHQHTCPSDRFKCENNRCIPNRWLCDGDNDCGNSEDESNATCSARTCPPNQFSCASGRCIPISWTCDLDDDCGDRSDESASCAYPTCFPLTQFTCNNGRCININWRCDNDNDCGDNSDEAGCSHSCSSTQFKCNSGRCIPEHWTCDGDNDCGDYSDETHANCTNQATRPPGGCHTDEFQCRLDGLCIPLRWRCDGDTDCMDSSDEKSCEGVTHVCDPSVKFGCKDSARCISKAWVCDGDNDCEDNSDEENCESLACRPPSHPCANNTSVCLPPDKLCDGNDDCGDGSDEGELCD
notes: Recombinant soluble fragment made as in Bu and Rennke 1996; also called immobilized LRP

ratio of apical-to-basolateral to basolateral-to-apical permeability coefficient of 125I-RAP, MEGt-transfected MDCK [2]: 460 times
B2: receptor-associated protein (RAP) (ligand)
chain: YSREKNQPKPSPKRESGEEFRMEKLNQLWEKAQRLHLPPVRLAELHADLKIQERDELAWKKLKLDGLDEDGEKEARLIRNLNVILAKYGLDGKKDARQVTSNSLSGTQEDGLDDPRLEKLWHKAKTSGKFSGEELDKLWREFLHHKEKVHEYNVLLETLSRTEEIHENVISPSDLSDIKGSVLHSRHTELKEKLRSINQGLDRLRRVSHQGYSTEAEFEEPRVIDLWDLAQSANLTDKELEAFREELKHFEAKIEKHNHYQKQLEIAHEKLRHAESVGDGERVSRSREKHALLEGRTKELGYTVKKHLQDLSGRISRARH
